Measured values from PMC3168509, “Insights into the Role of Yeast eIF2A in IRES-Mediated Translation” (PLoS ONE, 2011).

Target: T1, GST-eEF1A (full-length eEF1A/Tef1p fused to GST) (S. cerevisiae, UniProt P02994 1-458)
T1 construct: yeast eEF1A, TEF1 amplified by PCR from genomic DNA; also called GST-TEF1; full-length eEF1A fusion protein; not shown: GST, N-terminal, kept
T1 sequence (looked up): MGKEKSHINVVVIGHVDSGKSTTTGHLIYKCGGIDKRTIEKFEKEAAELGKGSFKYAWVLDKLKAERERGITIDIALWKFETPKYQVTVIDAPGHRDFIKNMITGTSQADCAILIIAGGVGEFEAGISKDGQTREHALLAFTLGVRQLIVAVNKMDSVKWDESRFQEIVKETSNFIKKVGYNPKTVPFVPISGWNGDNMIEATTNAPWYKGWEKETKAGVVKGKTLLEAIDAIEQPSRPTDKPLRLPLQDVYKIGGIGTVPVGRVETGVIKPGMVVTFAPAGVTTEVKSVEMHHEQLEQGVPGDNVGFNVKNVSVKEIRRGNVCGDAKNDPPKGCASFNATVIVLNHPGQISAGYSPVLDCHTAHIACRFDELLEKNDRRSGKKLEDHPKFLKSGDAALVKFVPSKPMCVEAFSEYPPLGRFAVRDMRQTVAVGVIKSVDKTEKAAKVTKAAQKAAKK
Test: pull-down; full-length GST-eEF1A on glutathione-Sepharose with lysates of ΔeIF2A yeast carrying YCplac111-YP, grown 1 h without or with 6% ethanol; Western blot for HA, bands quantified with Image J against 8% input
Conditions: one partner purified

B1: HA-eIF2A (N-terminally HA-tagged eukaryotic initiation factor 2A expressed from YCplac111-YP) (natural protein, S. cerevisiae, UniProt P53235 1-642, looked up)
chain: MSSQFFLKTSQDIELFQSYPTFEQSNTNSKDFPVISSVLSPCGRFLALSTKENVKVFTGPCLDNVLLTMKLSDVYDLHFSPAGNYLSTWERASIQDPNHKNVKVWYLNKPFKKDCVSEDIVPAYEYQAKSQSGWFLQFSKLDNYGLRLFKHDLKIVKLSSANADNFDFQSPFAVLSDDETSQHFTTYLISPAEHPTICTFTPEKGGKPAQLIIWALSEGKITKKIASKTFFKADSCQLKWNPLGNAILCLAITDFDSSNKSYYGENTLYLLSFQGVNGTLGGNSVRVSLTTGPVHDFTWSPTSRQFGVIAGYMPATISFFDLRGNVVHSLPQQAKNTMLFSPSGHYILIAGFGNLQGSVEILDRLDKFKCVSKFDATNTSVCKWSPGGEFIMTATTSPRLRVDNGVKIWHVSGSLVFVKEFKELLKVDWRSPCNYKTLENKDEAFFENHIINNWEPLPDSTTSSLDPKISNKSELQIHSSVQEYISQHPSREASSNGNGSKAKAGGAYKPPHARRTGGGRIVPGVPPGAAKKTIPGLVPGMSANKDANTKNRRRRANKKSSETSPDSTPAPSAPASTNAPTNNKETSPEEKKIRSLLKKLRAIETLKERQAVGDKLEDTQVLKIQTEEKVLKDLEKLGWKDE
notes: yeast eukaryotic initiation factor 2A, encoded by YGR054w; the HA-tagged eIF2A coding region behind its natural promoter; the kind of modification is not known; also called HA-tagged eIF2A; YGR054w; source: BY4684 ΔeIF2A yeast transformed with YCplac111-YP (native promoter), in lysate; not shown: HA, N-terminal, kept
  fold increase in interaction (6% ethanol against untreated cells): 2 fold
